Columns and labels:
BmLARK [1] = target: T1, BmLARK (Bombyx mori, UniProt Q5I7M6 1-343); experiment: EMSA; 50 mM K+; reduced by unlabelled same-sequence competitor; 10 mM Tris pH 7.5, 50 mM KCl, 1 mM DTT, room temperature, 20 min; 2 uM probe, 2 ug BmLARK or 1 ug BG4 in 20 ul; 4% PAGE on ice; settings: protein: recombinant; tags: GST (pGEX-6P-1); label: 5' 6-FAM; G-quadruplex
BmLARK [2] = target: T1, BmLARK; experiment: EMSA; 50 mM K+; 10 mM Tris pH 7.5, 50 mM KCl, 1 mM DTT, room temperature, 20 min; 2 uM probe, 2 ug BmLARK or 1 ug BG4 in 20 ul; 4% PAGE on ice; settings: protein: recombinant; tags: GST (pGEX-6P-1); label: 5' 6-FAM

T1 sequence (Q5I7M6 entry or part of it): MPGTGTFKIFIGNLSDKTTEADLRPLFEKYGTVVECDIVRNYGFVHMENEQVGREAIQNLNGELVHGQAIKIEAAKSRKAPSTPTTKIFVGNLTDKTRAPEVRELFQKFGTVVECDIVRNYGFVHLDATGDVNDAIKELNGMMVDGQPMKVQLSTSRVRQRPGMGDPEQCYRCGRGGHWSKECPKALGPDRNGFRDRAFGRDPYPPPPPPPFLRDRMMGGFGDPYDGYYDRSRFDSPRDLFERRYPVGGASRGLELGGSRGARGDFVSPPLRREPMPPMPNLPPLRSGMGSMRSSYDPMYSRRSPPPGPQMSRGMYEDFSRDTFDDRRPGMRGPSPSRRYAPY

B1: FAM-BmACBP G4 (folded with K+) (structured_DNA)
DNA: GTCGGGAAGGGGTTGGGGGGGGGTAGGTT
binding result (BmLARK [1]): binds

B2: FAM-Mut BmACBP G4 (ssDNA)
DNA: GTCGTGAAGGTGTTGATGGAGTGTAGGTT
binding result (BmLARK [2]): no binding

From article PMC9262599, “DNA G-quadruplex structure participates in regulation of lipid metabolism through acyl-CoA binding protein”
